# Experimental data reported in the nanobody polyreactivity screen of Harvey et al. (2022).
# Experiment: yeast display, Sf9 membrane polyspecificity reagent, FACS + sequencing; frameworks hold sequencing errors
# Procedure, shortened: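 Polyreactivity labels are assigned by the sorting gate from which each nanobody was recovered. The gates were low and high (top ~1%), set on anti-HA fluorescence for expression and streptavidin fluorescence for reagent binding. Before sorting, galactose-induced (36–48 hours) yeast display cells were stained for 1 hour at 4 °C with 10% biotinylated, detergent-solubilized Sf9 membrane reagent.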
row,Sequence,polyreactivity (PSR sort gate)
1,QVQLVESGGGLVQAGGSLRLSCAASGSSFYPYAMGWYRQAPGKERELVAAISRRGGSTYYADSVKGRFTISRDNAKNTVYLQMNSLKPVDTEVYYCNVVTDSPYPVDYWGQGTQVTVSS,high polyreactivity
2,QVQLVESGGGLVQAGGSLRLSCAASGSIIVRNALGWYRQEPGTERELVAAISWGGGRTYYADSVKGRFTISRDNAKNTVYLQMNSLKPEDTAVYYCAAVHRAVQMGYWGQGTQVTVSS,high polyreactivity
3,QVQLQESGRRPGAAGGSPRISCAASGYIFWVAVMGRYRQAPGKDRELVASIGFGCTTYYADSVKCRFTISRDNAKNSVYLQMISLKPEDTAVYYCAAPHYDWGELDYWGQGTQVPVSS,low polyreactivity
4,QDQLVESGGGLVQAGGSLRLSCAASGTIFFGYSMGSYRQAPGKERDLVASISSADTTYYADSVKGRFTISRDNAKNTVYLQMNSLKPEDTAVYYCAAREGQLWEDGDYWGQGTQVTVSS,low polyreactivity
5,QVQLVESGGGLVQAGGSLRLSCAASGGIFGLYTMGWYRQAPGKERELVAAISKTGGSTYYADSVKGRFTISRDNAKHTVYLQMNSLKPEDTAVYYCAADGPYDDYEYWGQGTQVTVSS,high polyreactivity
6,QVQLVESGGGLVQAGGSLRLSCAASGSTFVYNVMGWYRQAPGKERELVAAITSCVRTYYADSVKGRFTISRDNAKNTVYLQMNSLKPEDTAVYYCAARGYYSVVEYYYWGQGTQVTVSS,high polyreactivity
7,QVQLVESGGGLVQAGGSLRLSCAASGITFVYYAMRSYRQAPGKERELVAAITRSGDSTYYADSVKGRFTISRDNAKNTVYLQMNSLKPEDSAVYYCAAESYYSTYQVEYYYWGQGTQVTVSS,high polyreactivity
8,QVQLVESGGGLVQAGGSLRLSCAASGRIFWVNAMGWYRKAPGKERELVARIRGRSGSTYYADSVKGRFTISRDNAKNPVYLQMNSLKREDTAVYYCAAREFRRPDIFLRDYWGQGTQVTVSS,high polyreactivity
9,QVQLQESGGGLVQACGSLRLSCAASGYIFSHQYMGWYRQAPGKERELVASISPGATTNYADSVKGRFTISRDNAKNTVYLQMNSLKPEDTAVYYYAVQTPDVIRHFYWGQGTQVTVSS,high polyreactivity
10,QVQLVESGGGLVQAGGSLRLSCAASGSIFDVYGMGWYRQAPGKERELVARITSAGNTDYADSVKGRFTISRDNAKNTVYLQRNSLKPEDTAVYYCARDYVWFYGDTDFYYYLFDYWGQGTQVTVSS,low polyreactivity
11,QVQLVESGGGLVQAGGSLRLSCAASGINFSEYAMGWSRQAPGKERELVAVITSGGSTYYADSVKGRFTISRDNAKNTVYLQMNSLKPEDTAVYYCAARTAYASRYVNVPYYYWGQGTQVTVSS,high polyreactivity
12,QVQLVESGGGLVQAGGSLRLSCAASGYTFTLYAMGWYRQAPGKEREFVAAISIGGDSTYYADSVKGRFTISRDNAKNTVYLQMNSLKPEDTAVYYCAADTYQRWILLIGELQVETSYDYWGQGTQVTVSS,low polyreactivity
13,QVQLVESGGGLVQAGGSLRLSCPAPGRIFDRNAMGRYRQAPGKERELVAAISGSGGRTYYADSVKGRFTISRDNAKNTVYLQMNSLKPEDTAVYYCAASRKYGYGDWGQGTQVTVSS,high polyreactivity
14,QVQLVESGGGLVQAGGSLRLSCAASGFIFLYAMGWYRQAPGKERELVAAISWSDTSTYYADSVKGRFTISRDNAKNTVYLQMNSLKPEDTAVYYCNAETWNYGDYDYWGQGTQVTVSS,high polyreactivity
15,KVQLVESGGGLVQAGGSLRLSCAASGSTFPPNAMGWNRQAPGKERELVAVISYSDGSTYYADSVKGRFTISRDNAKNTVYLQMNSLKPEDTAVYYCAAYSGYGGVSMYYWGQGTQVTVSS,low polyreactivity
16,QVQLVESGGGLVQAGGSLRLSCAASGSIFRSNTMGWYRQAPGKERELVAGISYSGGSTYADSVKGRFTISRDNAKNTVYLQMNSLKTEDTAVYYCARRVYSYVVLYFSYYYWGQGTQVTVSS,low polyreactivity
17,QVQLVESGGGLVQAGGSLRLSSAASGRIFHPYAMGWYRPAPGQERELVAAITNSGGITYADSVKGRFTISRGNAKNTVYLQMNSLKPEDTAVYYCNTATNRFHYKYRKPYDYWGQGTQVTVSS,low polyreactivity
18,QVQLEESGGGLVQAGGSLRLICAASGGTISKYAMGWYRQAPGTEMELVAAITYSSGSTYYADSVKGRFTISRDNAKNTVYLQMNSLKPEDTAVYYCAARSGLYWWRFDYWGQGTLVTVSS,high polyreactivity
19,QVQLVESGGGLVQAGGSLRLSCAASGFIFGGNAMGWYRPAPGKERELVAAISRRGGNTYYADSVKGRFTISRDNAKITVYLQMNSLKPEDTAVYYCATGTSYWYLWAYDYWGQGTQVTVSS,high polyreactivity
20,QVQLVESGGRLLQAGGSLRLSCAASGSTISHYAMGWYRQAPGKEWELVATITVTGVRTYYADSVKGRFTISRDNAKNTVYLELNSLKPEDTAVYYCAVRPSTRGAQAQPWMYYWGQGTQVTVSS,low polyreactivity
21,QVQLVESGGGLVQAGGSLRLSCAASGSIFKYYTMGWYRQAPGKERELVSGISYRGGSTYYADSVKGRFTISRDNAKNTVYLQMNSLKPEDTAVYYCNAVQLSGGDYWGQGTQVTVSS,high polyreactivity
22,QVQLVESGGGLVQAGGSLRLSCAASGFIIKSYAMGWYRQAPGKERELVAAISYTGSITYYADSVKGRFTISRDNAKNTVYLQMNSLKPEDTSVYYCAVGRYADQNDYWGQGTQVTVSS,high polyreactivity
23,QVQLVESGGGLVQAGGSLRLSCAASGRIFYGYTMVWYRQAPGKERELVAAISWSGGSTSYADSVKGRFTISRDNAKNTVYLQMKSMKPEDTAVYYCAVRYPGYRQYWGYTYDYWGQGTQVTVSS,high polyreactivity
24,QVQLVESGGGLVQAGGSLRLSCAASGFTFFEDNAMGWYRQAPGKERELVAAITSGGSTNYADSVKGRFTISRDNAKNTVYLQMISLKPEDTAVYYCAKDRVPLKTRFYYFPWGYDYWGQGTQVTVSS,low polyreactivity
25,QVQLVESGGGLVQAGGSLRLSCAASGSIFRYYAMGWYRPAPGKERELVAAISSGGNTKYADSVKGRFTISRDNAKNTVYLQMNSLKPADTAVYYCNAAGKACGDYDYWGQGTQVTVSS,low polyreactivity
26,QVQLVESGGGLVQAGGSLRLSCAASGRIFVKNAMGWYRQAPGKERELVAAISSGSSTNYADSVKGRFTISRDNAKNTVYLQMNSLKPEDTAVYYCAARQAQWDDYWGQGTQVTVSS,high polyreactivity
27,QVHLVESGGGLVQAGGSLRLSCAASGSIFFGNAMGWYRQAPGKERQLVAAISTTGGSTYYADSVKGRFTISRDNAKNTVYLQMNSLKPEDTAVFFCNSDRATWWEQWWYDYWGQGTQVTVSS,low polyreactivity
28,QVQLVESGGGLVQAGCSLRLSCAASGSIFVNKAMGWYRQAPGKERELVAAISSRSSRTFYADSVKGRFTISRDNSKNTVYLQMNSLKPEDTAVYYCAARRRLAWGQGTQVTVSS,high polyreactivity
29,QVQLVESGGGLVQAGGSLRLSCAASGFIFPPYDMGWYRQAPGKERELVADITYSDGITYYADSVKGRFTISRDNAMNTVYLQMNSLKPEDTAVYYCNADYSRIGPEVDYWGQGTQVTVSS,low polyreactivity
30,QVQLVESGGGLVQAGGSLRLSCAASGSTFSPYAMGWYRQAPGKERELVADISWPGGTTYYADSVKGRFTISRDNAKNTVYLQMNSLKPEVTAVYYCAVTYWDYTFQITYEYWGQGTQVTVSS,low polyreactivity
